# Laboratory results reported in article doi:10.1101/2025.09.05.674548.
# Biological target: T.ni-cell expression optimized human P2X4 construct (P2X4^T.ni) (human) (UniProt Q99571)
substance,measurement,value
T.ni-cell expression optimized human P2X4 construct (P2X4^T.ni) (from UniProt Q99571-1 1-388) (receptor),stoichiometry N,3
